No end group written: not given here. *: point of attachment. DOTA = O=C(O)CN1CCN(CC(=O)O)CCN(CC(=O)*)CCN(CC(=O)O)CC1

Data set [1] has as its system B16F10 cells. Put plainly: Growth inhibitory effect of 177Lu-AP1 on B16F10 cells (CCK8). In kind it is cell-based, mice. The note with it: radioactive dose 600 μCi/mL, incubated 24 hours, then 24 hours in normal medium.
Description: • (1) The B16F10 cells of mice in the logarithmic growth phase were taken and digested by using pancreatin, and the cell concentration was adjusted to 4×10^4 cells/mL; the cells were plated in a 96-well plate at a volume of 100 μL per well, the cell concentration was 4×10^3 cells per well, and the cells were incubated overnight in an incubator at 37° C./5% CO2; • (2) the medium was replaced for each group of cells, 100 μL of culture solution with a specified dosage was added, and ^177LuCl3 and ^177Lu-AP1 with the same dosage concentration were added into two 96-well plates, wherein dosage concentrations were 0, 10, 100, 200, 300, 400, 500 and 600 μCi/mL; after 24 h, the normal culture medium was used to continue culturing; • (3) a culture medium with 10 μL of CCK8 solution (10%) was added at 24 h and 48 h after the normal culture medium was used, and the culture was continued in the incubator for 1 h; • (4) after 1 h, the absorbance at 450 nm of each well was measured using a microplate reader. The relative survival rate of the cells was calculated according to the measured OD value. Cell viability=(material added group−blank group)/(control group−blank group)×100%.
Another data set is described as follows: in vitro. The note with it: mouse, B16F10 cells.
The subject of data set [2] is B16F10 cells. The note with it: 0-100 μg/mL.
Description: (§1) • (1) The skin melanoma B16F10 cells of mice in the logarithmic growth phase were taken and digested by using 0.25% pancreatin, and the cell concentration was adjusted to 6×10^4/mL; the cells were plated in a 96-well plate at a volume of 100 μL per well, the cell concentration was 6×10^3 cells per well, and the cells were incubated overnight in an incubator at 37° C./5% CO2; • (2) the medium was replaced for each group of cells, and 100 μL of a culture solution with a specified concentration was added, wherein the concentration of each dose was 0, 0.5, 1, 5, 10, 20, 50 and 100 μg/mL; after 24 h, a DMEM medium (containing 10% of North American fetal bovine serum and 1% of double antibody) was used, and the culture was continued; • (3) 10 μL of CCK8 solution (10%) was added at 0 h and 24 h after the normal culture medium was used, and the culture was continued in the incubator for 1 h; • (4) after 1 h, the absorbance at 450 nm of each well was measured using a microplate reader. The relative survival rate of the cells was calculated according to the measured OD value. Cell viability=(material added group−blank group)/(control group−blank group)×100%.
The subject of data set [3] is B16F10 cells. Put plainly: Binding and inhibition assay of B16F10 cells to 68Ga-AP1. The data set is classed as cell-based, mice. The note with it: 0.11 MBq/mL 68Ga-AP1 with AP1 0-360 μg/mL, 1 h. The method, then: • (1) When the cells grew to more than 90%, the cells were digested with 0.25% pancreatin, the cell concentration was adjusted to 1×10^5 cells/mL, the cells were plated in a 24-well plate, and 0.5 mL of culture medium was added to each well. […] 0.5 mL of 0.11 MBq/mL ^68Ga-AP1 was the source count T. • (5) The radioactivity of the liquid (^68Ga-AP1) detected and collected by the radioimmunotube of each concentration of AP1 was denoted as count B. • (6) The cellular uptake was B/T×100%, and the half inhibitory concentrations were fitted based on different concentrations of AP1. FIGS. 5A-5B show a competitive binding and inhibition experiment between ^68GaAP1 and AP1.

For data set [4] the following is noted: mice, tail vein injection, two-compartment model.
Description: (§2) • (1) The ^68Ga-AP1 imaging probe was used for screening a high expression group and a low expression group of tumor ASF1a, and 20 μCi of ^68Ga-AP1 was injected into the tail vein of each mouse. After 0.5, 1.5, 3.5 and 5.5 h after injection, each important organ was dissected and separated. Each organ weight was measured and calculated as % ID/g=organ radioactivity count/(organ weight×source count)×100% for 3 mice per time point. • (2) Mice were sacrificed at 10 min, 20 min, 30 min, 1.5 h, 3.5 h, 5.5 h respectively after tail vein injection of ^68Ga-AP1, the radioactivity of the organs in the blood of the mice was measured, n=3 was measured at each time point, and the mean value of each time point was taken, and an intravascular two-compartment model was selected to fit hemodynamic parameters using PKSover software.
For data set [5] the following is noted: B16F10 tumor-bearing mouse, tail vein injection.
Description: as §2
Another data set in a line: in vivo. The note with it: mouse, tumor, iv, 20 uCi per mouse, total radioactivity, after 5.5 hours, B16F10 tumor-bearing mouse.
Data set [6] is described as follows: Stability analysis of 68Ga/177Lu labeled product in PBS by HPLC. The data set is classed as physicochemical. The note with it: within 24 hours, stability data determined with 177Lu. The method, then: • (1) The HPLC mobile phases were water and acetonitrile (each containing 0.1% TFA), and the gradient was set from 20% to 50% acetonitrile concentration over a period of 30 minutes. • (2) The injection analysis of ^68Ga/^177Lu-AP1 in PBS at different time points (0, 1.5, 3.5, and 24 h) under the same condition is shown in FIG. 2 (identification and purification of ^68Ga/^177Lu-labeled AP1 product) (The radiation peak of the product is mainly the peak of the polypeptide. Since the half-life of ^68Ga is only 68 minutes, and the amount of radiation injected is very small, the stability data is determined by ^177Lu (6.71 days) with a longer half-life).

In data set [7] the test system is B16F10 cells.
Description: Safety of radiolabeled ^68Ga-AP1 imaging probe • (1) The B16F10 cells of mice in the logarithmic growth phase were taken and digested by using 0.25% pancreatin, and the cell concentration was adjusted to 6×10^4 cells/mL; the cells were plated in a 96-well plate at a volume of 100 μL per well, the cell concentration was 6×10^3 cells per well, and the cells were incubated overnight in an incubator at 37° C./5% CO2; • (2) the medium was replaced for each group of cells, 100 μL of a culture solution with a specified concentration was added, and the radioactive doses were taken as 0, 1, 2.5, 10, 25, 50, 100, and 200 μCi/mL; after 12 h, the normal culture medium was used and 10 μL of CCK8 solution (10%) was added, and the culture was continued in an incubator for 1 h; • (3) after 1 h, the absorbance at 450 nm of each well was measured using a microplate reader. The relative survival rate of the cells was calculated according to the measured OD value. Cell viability=(material added group−blank group)/(control group−blank group)×100%.

Description for in vitro: as §1
Description for in vivo: as §2

On to `[Cl][177Lu]([Cl])[Cl]` [^177LuCl3], for which the “cell survival rate after 24 hours” value in the data set with B16F10 cells [1] is 82.19±16.69%.

As for “{DOTA}-YGRKKRRQRRRCASTEEKWARLARRIAGAGGVTLDGFGGCA (cysteines drawn unpaired) [AP1]”, in the data set “in vitro”, the viability (commonly a read-out of living cells in per cent, often relative to untreated cells) at 24 h, 100 µg/mL amounted to 94.7 ± 11% and the viability at 48 h, 100 µg/mL was found to be 103 ± 5.76%. Moreover, the “biocompatibility of the polypeptide” value with B16F10 cells [2] is recorded as “good biocompatibility”.

Turning to “{DOTA}-YGRKKRRQRRRCASTEEKWARLARRIAGAGGVTLDGFGGCA-OH (N-terminus assumed; cysteines drawn unpaired) [^68Ga-AP1, metal not drawn]”, the “uptake in B16F10 cells inhibited by AP1” value in the data set with B16F10 cells [3] is on record as “can be specifically uptaken”. In addition, in [4], the “half-discharge time in the blood” value was 2.1933 h. For the same molecule, the “mean residence time (MRT) in vivo” value in data set [4] is 3.1643 h. Also, the “route of metabolism (in vivo biodistribution)” value in [5] is “mainly metabolized through liver and kidney”. In addition, the tissue uptake (in general, the percentage of the injected dose found per gram of tissue) at 5.5 h turned out to be 18.9 ± 0.248 %ID/g in the data set “in vivo” (tumor % ID/g in tumor high-intake group, high-intake group) and 5.24 ± 1.73 %ID/g in the data set “in vivo” (tumor % ID/g in tumor low-intake group, low-intake group). For the same molecule, the “stability of the labeled product” value in data set [6] is on record as “good stability”. Also, the “biocompatibility of the PET/CT imaging probe” value in the data set with B16F10 cells [7] (0-200 μCi/mL) is “good biocompatibility”. Moreover, the cell survival rate with B16F10 cells [7] (radioactivity at most 200 μCi/mL) was determined as 95.31±9.05%.

(Values after patent publication US20240131207A1, “NUCLIDE-LABELED INHIBITORY PEPTIDE, AND PREPARATION METHOD THEREFOR AND USE THEREOF” (SUZHOU UNIVERSITY, priority 2022, published 2024).)
